Experimental data taken from publication PMC5379943 (The Journal of Cell Biology, 2017).

Target: T1, His-PLEKHM1 (1–300) (UniProt Q9Y4G2 1-300)
T1 construct: PLEKHM1, residues 1–300; also called His-tagged PLEKHM1 (1–300); source: purified
Assay: pull-down; competition: GST-Arl8b as bait incubated with His-PLEKHM1 (1–300) and increasing concentrations of MBP-SKIP (1–300); immunoblot
Conditions: both partners purified

binding result: binds
B1: GST-Arl8b (natural protein, UniProt Q9NVJ2 1-186, looked up)
chain: MLALISRLLDWFRSLFWKEEMELTLVGLQYSGKTTFVNVIASGQFSEDMIPTVGFNMRKVTKGNVTIKIWDIGGQPRFRSMWERYCRGVNAIVYMIDAADREKIEASRNELHNLLDKPQLQGIPVLVLGNKRDLPNALDEKQLIEKMNLSAIQDREICCYSISCKEKDNIDITLQWLIQHSKSRRS
notes: Arl8b small GTPase; source: E. coli BL21, purified on glutathione resin
